Measured values as given in patent US20030186334A1, “KTS-disintegrins” (Temple University - Of the Commonwealth System of Higher …, priority 2001, published 2003).

What was measured:
[1] = target: T1, α1β1 integrin (Homo sapiens, UniProt P05556+P56199); test: adhesion of α1K562 cells to collagen I; assay type: cell-based; settings: α1β1, Coll I
T1 construct: expressed in transfected cells; host or cells: α1K562 cells
Protocol: (§1) Adhesive ligands for the selected integrins consisted of collagen IV (0.2 μg/well), collagen I, fibronectin, or vascular cell adhesion molecule-1 (VCAM-1). Adhesive ligands in 0.02 M acetic acid were immobilized overnight at 4° C. on a 96-well plate. Plates were then blocked with 1% (w/v) BSA (bovine serum albumin) in Hank's Balanced Salt Solution (HBSS) containing 3 mM Mg^2+ at room temperature for 1-2 hours to prevent cells from non-specifically binding to the plates. α1K562, α2K562, K562, A5, and Jurkat cells expressing the α1β1, α2β1, α5β1, αIIbβ3, and α4β1 integrins respectively were labeled by incubation with 12.5 μM 5-chloromethylfluorescein diacetate (CMFDA) in HBSS for 15 minutes at 37° C. CMFDA labeled cells were then pelleted, washed and resuspended in HBSS buffer containing 3 mM Mg^2+ and 1% (w/v) BSA. […] Plates were then incubated at 37° C. for 30 minutes as indicated in Table 5 and washed three times with HBSS containing 3 mM Mg^2+ and 1% (w/v) BSA to remove unbound cells. Bound cells were lysed using 0.5% (v/v) Triton X-100 in H2O. Fluorescent CMFDA released by lysis of adherent cells in a given well was read using a Cytofluor 2350 fluorescence plate reader.
(§2) The effect of obtustatin, viperisrastatin, echistatin, and eristostatin on the binding of selected integrins to their adhesive ligands was evaluated using the cell adhesion assay described in Example 6. The integrin-expressing cells, integrins and corresponding adhesive ligands, and the results of the cell adhesion assay are shown in Table 6.

[2] = target: T2, α1β1 integrin (Mus musculus, UniProt P09055+Q3V3R4); test: adhesion of B16F10 cells to collagen IV; assay type: cell-based; settings: α1β1, Coll IV
T2 construct: endogenous in cells; host or cells: B16F10 cells

[3] = target: T3, α9β1 integrin (Homo sapiens, UniProt P05556+Q13797); test: adhesion of SW480α9 cells to VCAM-1; assay type: cell-based; settings: α9β1, VCAM-1
T3 construct: expressed in transfected cells; host or cells: SW480α9 cells

[4] = target: T4, αIIbβ3 integrin (Homo sapiens, UniProt P05106+P08514); test: adhesion of A5 cells to fibrinogen; assay type: cell-based
T4 construct: expressed in transfected cells; host or cells: A5 cells
Protocol: as §1, §2

[5] = target: T5, αvβ3 integrin (Homo sapiens, UniProt P05106+P06756); test: adhesion of JY cells to vitronectin; assay type: cell-based; settings: αvβ3, VN
T5 construct: endogenous in cells; host or cells: JY cells

[6] = test system: angiogenesis; test: Japanese quail chorioallantoic membrane (CAM) angiogenesis assay; assay type: in vivo; settings: 20 μg and 50 μg, no angiogenesis stimulators
Protocol: The disintegrins obtustatin and eristostatin were evaluated for their effect on angiogenesis via a Japanese quail chorioallantoic membrane (CAM) assay, as is known in the art (see, for example, Parsons-Wingerter P et al., “A Novel Assay of Angiogenesis in the Quail Chorioallantoic Membrane: Stimulation by bFGF and Inhibition by Angiostatin According to Fractal Dimension and Grid Intersection.” Microvascular Research 55(3):201-214, 1998, the disclosure of which is herein incorporated by reference).

[7] = test system: Lewis lung carcinoma; test: Lewis lung carcinoma growth in syngeneic mouse model; assay type: in vivo, C57BL/6 mice; settings: 5 mg/kg intraperitoneally once daily for eight days
Protocol: Lewis lung carcinoma cells (1×10^6) were injected under the skin of the C57BL/6 mice (Tacoma Inc., Germantown, N.Y.), and tumors were allowed to grow for one week. The average tumor size after one week of growth was approximately 0.08 cm^3. The one-week time-point was called “day 0.” Two treatment groups of four mice each were injected intraperitoneally once daily with either 5 mg/kg obtustatin or 5 mg/kg echistatin beginning on day 0 for a total of eight days. A control group of four mice received only PBS. Tumor volume was measured daily using the formula length×width^2×0.52.

[8] = test system: dermal microvascular endothelial cells (EC); test: apoptosis by caspase-3 levels in dermal microvascular endothelial cells; assay type: cell-based
Protocol: (§3) The mechanisms of the cancer-suppressing effect observed for obtustatin were investigated as follows. Dermal microvascular endothelial cells (EC) and human melanoma cells (MV3) were cultured and exposed to TNF-α, vincristine and obtustatin. (TNF-α and vincristine are compounds which induce cell death by apoptosis in both normal and cancerous cells.) Control cells received only vehicle. The extent of apoptosis was measured by determining caspase-3 levels.

[9] = test system: human melanoma cells (MV3); test: apoptosis by caspase-3 levels in melanoma MV3 cells; assay type: cell-based
Protocol: as §3

[10] = test system: human microvascular endothelial cells (HMVECs); test: BrdU incorporation growth assay in HMVECs; assay type: cell-based; settings: 2 μM
Protocol: (§4) Human microvascular endothelial cells (HMVECs) and melanoma cells (HS.939T) were cultured and treated with vehicle (control), 2 μM obtustatin, 2 μM echistatin or 50 ng/ml TNF-α. Growth of the cells was determined by a standard BrdU incorporation assay (Chemicon), according to the manufacturer's instructions.

[11] = test system: melanoma cells (HS.939T); test: BrdU incorporation growth assay in HS.939T melanoma cells; assay type: cell-based, human; settings: 2 μM
Protocol: as §4

[12] = target: α2β1 integrin (Homo sapiens, UniProt P05556+P17301); test: adhesion of α2K562 cells to collagen I; assay type: cell-based; set-up: expressed in transfected cells; host or cells: α2K562 cells
Protocol: as §1, §2

T1 sequence (P56199 29-1179): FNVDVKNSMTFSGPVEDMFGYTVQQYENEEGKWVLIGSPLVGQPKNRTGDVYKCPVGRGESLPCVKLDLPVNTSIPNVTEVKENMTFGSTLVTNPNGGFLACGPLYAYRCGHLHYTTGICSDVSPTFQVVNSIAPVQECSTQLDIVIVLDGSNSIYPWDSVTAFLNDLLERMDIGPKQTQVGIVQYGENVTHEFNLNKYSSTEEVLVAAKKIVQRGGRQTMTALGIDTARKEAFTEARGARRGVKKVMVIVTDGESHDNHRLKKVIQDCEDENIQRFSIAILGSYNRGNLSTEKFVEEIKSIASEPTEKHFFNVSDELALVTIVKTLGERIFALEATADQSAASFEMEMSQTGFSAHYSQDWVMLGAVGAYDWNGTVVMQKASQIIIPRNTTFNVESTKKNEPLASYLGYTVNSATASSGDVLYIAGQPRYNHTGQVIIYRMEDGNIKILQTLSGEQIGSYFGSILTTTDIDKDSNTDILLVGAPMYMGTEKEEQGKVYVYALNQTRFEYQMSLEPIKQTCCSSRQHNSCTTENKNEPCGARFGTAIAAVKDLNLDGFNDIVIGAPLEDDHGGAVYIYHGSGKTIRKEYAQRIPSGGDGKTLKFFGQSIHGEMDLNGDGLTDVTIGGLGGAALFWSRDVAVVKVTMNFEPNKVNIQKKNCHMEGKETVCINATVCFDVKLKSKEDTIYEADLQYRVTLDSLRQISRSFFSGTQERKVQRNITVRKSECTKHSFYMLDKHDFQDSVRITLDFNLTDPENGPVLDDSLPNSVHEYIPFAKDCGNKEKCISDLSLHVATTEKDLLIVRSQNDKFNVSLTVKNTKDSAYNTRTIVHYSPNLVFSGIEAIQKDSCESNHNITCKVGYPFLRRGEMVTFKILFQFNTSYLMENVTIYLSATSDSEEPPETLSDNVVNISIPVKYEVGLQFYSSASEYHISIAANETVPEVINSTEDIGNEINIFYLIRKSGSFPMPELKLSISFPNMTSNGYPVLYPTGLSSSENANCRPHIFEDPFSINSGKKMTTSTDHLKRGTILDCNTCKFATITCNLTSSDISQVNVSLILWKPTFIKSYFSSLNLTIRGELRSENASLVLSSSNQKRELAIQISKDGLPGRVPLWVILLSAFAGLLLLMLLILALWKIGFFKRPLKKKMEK
T1 sequence (P05556 21-798): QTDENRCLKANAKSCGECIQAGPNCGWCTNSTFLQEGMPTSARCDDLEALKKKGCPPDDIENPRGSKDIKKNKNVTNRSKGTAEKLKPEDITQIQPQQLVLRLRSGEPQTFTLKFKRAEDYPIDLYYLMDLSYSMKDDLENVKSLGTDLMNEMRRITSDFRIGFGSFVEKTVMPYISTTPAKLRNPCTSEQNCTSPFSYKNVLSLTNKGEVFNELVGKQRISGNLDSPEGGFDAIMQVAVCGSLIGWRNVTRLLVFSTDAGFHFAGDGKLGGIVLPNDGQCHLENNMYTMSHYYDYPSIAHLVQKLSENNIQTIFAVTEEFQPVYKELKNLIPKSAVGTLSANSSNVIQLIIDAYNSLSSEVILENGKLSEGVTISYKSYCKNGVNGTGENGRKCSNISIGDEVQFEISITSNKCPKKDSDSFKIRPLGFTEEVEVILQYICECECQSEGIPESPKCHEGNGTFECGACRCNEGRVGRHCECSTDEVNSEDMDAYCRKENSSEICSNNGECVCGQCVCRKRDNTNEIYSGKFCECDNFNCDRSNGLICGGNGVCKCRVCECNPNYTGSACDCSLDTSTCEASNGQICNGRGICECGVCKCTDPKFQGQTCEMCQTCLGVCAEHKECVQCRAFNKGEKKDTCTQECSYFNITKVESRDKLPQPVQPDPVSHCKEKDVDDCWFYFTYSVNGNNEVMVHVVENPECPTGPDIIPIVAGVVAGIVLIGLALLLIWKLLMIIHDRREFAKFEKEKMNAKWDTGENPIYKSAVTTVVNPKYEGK
T2 sequence (Q3V3R4 29-1179): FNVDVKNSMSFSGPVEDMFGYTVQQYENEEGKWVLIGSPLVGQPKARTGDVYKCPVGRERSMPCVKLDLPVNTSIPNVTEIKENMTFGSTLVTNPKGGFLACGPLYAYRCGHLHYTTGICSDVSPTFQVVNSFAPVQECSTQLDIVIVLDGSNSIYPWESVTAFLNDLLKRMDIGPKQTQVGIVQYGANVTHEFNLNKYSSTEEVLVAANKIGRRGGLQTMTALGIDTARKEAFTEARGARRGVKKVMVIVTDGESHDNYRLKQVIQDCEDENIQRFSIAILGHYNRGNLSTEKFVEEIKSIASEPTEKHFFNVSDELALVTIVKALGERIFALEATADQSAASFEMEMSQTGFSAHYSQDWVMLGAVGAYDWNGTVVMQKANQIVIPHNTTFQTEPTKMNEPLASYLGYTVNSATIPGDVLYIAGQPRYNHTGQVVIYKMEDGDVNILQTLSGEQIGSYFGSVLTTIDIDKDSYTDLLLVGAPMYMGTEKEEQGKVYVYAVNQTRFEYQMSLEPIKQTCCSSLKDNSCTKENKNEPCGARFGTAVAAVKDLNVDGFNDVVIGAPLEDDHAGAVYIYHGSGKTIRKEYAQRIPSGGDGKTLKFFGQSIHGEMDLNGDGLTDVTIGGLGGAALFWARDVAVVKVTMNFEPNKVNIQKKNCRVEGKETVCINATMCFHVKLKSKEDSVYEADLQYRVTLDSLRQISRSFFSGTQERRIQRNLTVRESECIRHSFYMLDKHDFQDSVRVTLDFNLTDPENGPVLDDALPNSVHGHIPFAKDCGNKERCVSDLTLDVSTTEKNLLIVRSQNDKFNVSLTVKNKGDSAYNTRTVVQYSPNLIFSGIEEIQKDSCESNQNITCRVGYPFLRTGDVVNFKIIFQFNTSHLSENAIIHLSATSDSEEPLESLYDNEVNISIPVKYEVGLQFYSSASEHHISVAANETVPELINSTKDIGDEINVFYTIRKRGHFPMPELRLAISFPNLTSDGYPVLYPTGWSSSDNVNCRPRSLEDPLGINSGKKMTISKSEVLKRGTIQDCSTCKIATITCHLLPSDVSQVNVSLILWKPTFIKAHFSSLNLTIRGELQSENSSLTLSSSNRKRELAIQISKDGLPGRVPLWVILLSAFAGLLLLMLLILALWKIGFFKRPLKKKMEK
T2 sequence (P09055 21-798): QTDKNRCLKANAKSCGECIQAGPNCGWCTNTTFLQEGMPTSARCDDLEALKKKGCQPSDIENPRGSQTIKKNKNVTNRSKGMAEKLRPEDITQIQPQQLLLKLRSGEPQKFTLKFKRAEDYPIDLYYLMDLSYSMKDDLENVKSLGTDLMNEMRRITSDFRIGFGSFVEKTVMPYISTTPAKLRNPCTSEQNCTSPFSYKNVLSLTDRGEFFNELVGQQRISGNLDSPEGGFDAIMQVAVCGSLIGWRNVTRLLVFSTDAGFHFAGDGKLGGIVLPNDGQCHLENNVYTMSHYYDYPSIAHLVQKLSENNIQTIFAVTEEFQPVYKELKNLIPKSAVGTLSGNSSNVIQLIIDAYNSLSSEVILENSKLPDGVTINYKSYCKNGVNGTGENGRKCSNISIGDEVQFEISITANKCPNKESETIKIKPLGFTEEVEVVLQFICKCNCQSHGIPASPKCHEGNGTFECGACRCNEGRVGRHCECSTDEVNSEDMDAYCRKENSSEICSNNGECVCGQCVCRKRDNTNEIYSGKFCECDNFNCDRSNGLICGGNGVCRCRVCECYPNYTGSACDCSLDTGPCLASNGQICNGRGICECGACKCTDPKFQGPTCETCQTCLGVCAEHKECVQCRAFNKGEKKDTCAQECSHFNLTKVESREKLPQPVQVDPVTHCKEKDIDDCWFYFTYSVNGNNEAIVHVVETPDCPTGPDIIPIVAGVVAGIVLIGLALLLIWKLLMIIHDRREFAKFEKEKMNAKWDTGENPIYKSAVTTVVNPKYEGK
T3 sequence (Q13797 30-1035): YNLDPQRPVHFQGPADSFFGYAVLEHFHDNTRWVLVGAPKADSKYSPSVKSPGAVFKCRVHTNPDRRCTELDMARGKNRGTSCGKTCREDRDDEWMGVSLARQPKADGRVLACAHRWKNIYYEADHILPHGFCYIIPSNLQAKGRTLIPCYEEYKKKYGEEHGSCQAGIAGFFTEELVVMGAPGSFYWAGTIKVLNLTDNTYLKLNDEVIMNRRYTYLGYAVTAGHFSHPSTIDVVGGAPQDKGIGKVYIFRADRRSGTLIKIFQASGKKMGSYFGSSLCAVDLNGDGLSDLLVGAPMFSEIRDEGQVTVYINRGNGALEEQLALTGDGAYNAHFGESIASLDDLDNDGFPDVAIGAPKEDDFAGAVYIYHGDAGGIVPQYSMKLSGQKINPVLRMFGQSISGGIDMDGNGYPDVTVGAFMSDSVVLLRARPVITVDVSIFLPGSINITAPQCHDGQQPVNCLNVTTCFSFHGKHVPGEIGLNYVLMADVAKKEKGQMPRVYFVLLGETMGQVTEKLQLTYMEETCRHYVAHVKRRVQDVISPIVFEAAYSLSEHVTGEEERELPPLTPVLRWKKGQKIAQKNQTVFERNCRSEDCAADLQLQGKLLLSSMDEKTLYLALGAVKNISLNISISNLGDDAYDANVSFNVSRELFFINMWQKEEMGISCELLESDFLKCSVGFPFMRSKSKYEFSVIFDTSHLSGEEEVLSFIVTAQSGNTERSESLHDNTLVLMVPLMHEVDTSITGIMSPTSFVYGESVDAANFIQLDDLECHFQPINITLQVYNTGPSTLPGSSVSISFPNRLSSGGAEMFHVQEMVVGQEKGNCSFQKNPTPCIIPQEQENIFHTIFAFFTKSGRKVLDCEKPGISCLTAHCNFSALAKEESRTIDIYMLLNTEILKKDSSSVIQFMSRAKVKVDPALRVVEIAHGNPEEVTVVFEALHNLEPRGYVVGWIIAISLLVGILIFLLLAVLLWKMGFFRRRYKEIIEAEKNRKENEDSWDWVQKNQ
T3 sequence (P05556 21-798): as the sequence (P05556 21-798) above

“Obtustatin (CTTGPCCRQCKLKPAGTTCWKTSLTSHYCTGKSCDCPLYPG)” was tested, and the IC50 [1] was 0.0005 µM, the IC50 [2] was 0.0002 µM and the IC50 [3] was > 10 µM. The IC50 [4] was > 10 µM, the IC50 [5] was > 10 µM and the “inhibitory activity on angiogenesis (fractal dimension)” value [6] was “up to 30 % of control”. The “inhibition of tumor development (tumor volume)” value [7] was “by about half”, the “apoptosis (caspase-3)” value [8] was “induced significant apoptosis” and the “apoptosis (caspase-3)” value [9] was “not in MV3 cells”. The “growth (BrdU incorporation)” value [10] was “inhibited growth”, the “growth (BrdU incorporation)” value [11] was “not the HS.939T melanoma cells” and the IC50 [12] was > 10 µM.
